Measurements reported in patent US10421817 (BEIJING MABWORKS BIOTECH, dated 2019).

What was measured:
[1] = target: T1, human Claudin 18.1 (human, UniProt P56856 1-261); assay: FACS on HEK293A/hClaudin 18.1 cells
T1 construct: Overexpressed on HEK293A cells by lentivirus

[2] = target: T2, human Claudin 18.2 (human); assay: FACS on HEK-293A cells expressing human Claudin 18.2
T2 construct: Overexpressed on HEK293A or MC38 cells by lentivirus; endogenous on KATO-III and NUGC-4 cells

[3] = target: T3, human Claudin 18.1 Mutant 16 (Claudin 18.1/S42A/Q45N/E47Q/Q56E) (human, UniProt P56856 1-261); assay: FACS on HEK293A cells expressing mutant 16
T3 chain: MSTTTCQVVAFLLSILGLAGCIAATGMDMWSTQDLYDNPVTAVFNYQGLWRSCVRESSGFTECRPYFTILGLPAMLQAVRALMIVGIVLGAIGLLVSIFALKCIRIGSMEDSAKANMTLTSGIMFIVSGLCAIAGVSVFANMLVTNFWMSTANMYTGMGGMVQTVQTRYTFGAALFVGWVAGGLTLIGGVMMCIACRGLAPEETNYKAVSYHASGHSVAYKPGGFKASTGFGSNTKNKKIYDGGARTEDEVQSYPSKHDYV

[4] = target: human Claudin 18.1 Mutant 14 (Q56E) (human, UniProt P56856 1-261); assay: FACS on HEK293A cells expressing mutant 14
[5] = target: T4, human Claudin 18.1 Mutant 15 (Claudin 18.1/S42A/Q45N/Q56E) (human, UniProt P56856 1-261); assay: FACS on HEK293A cells expressing mutant 15
T4 chain: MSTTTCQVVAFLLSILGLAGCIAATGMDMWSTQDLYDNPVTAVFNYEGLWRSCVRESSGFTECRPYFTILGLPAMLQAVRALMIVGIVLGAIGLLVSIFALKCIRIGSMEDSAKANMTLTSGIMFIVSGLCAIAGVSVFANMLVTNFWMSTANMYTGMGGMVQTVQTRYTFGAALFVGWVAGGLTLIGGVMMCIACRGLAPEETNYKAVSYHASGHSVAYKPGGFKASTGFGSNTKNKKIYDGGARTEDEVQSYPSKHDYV

[6] = target: T1, human Claudin 18.1; assay: FACS on HEK293A cells expressing human Claudin 18.1 WT

T1 sequence (P56856 whole entry): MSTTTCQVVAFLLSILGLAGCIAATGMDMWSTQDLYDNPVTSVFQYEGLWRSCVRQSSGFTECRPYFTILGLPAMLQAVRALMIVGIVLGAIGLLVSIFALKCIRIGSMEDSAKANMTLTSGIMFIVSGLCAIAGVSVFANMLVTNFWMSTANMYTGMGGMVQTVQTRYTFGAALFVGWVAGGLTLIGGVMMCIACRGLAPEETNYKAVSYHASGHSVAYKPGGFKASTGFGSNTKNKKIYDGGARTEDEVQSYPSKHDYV

Binder	binding result [1]	EC50 [2] [pM]	further results
18F2-66VH6VL3 (antibody, human IgG1, kappa, Humanized, human IgG1/kappa constant regions) heavy: not shown light: DIVMTQSPSSLTVSLGEKATISCKSSQSLLNSGNQKNYVTWYQQKPGQPPKLLIYWSSTRSFGVPDRFSGSGSGTDFTLTISSLQAEDLAVYYCQNDYTYPFTFGSGTKLEIKRTVAAPSVFIFPPSDEQLKSGTASVVCLLNNFYPREAKVQWKVDNALQSGNSQESVTEQDSKDSTYSLSSTLTLSKADYEKHKVYACEVTHQGLSSPVTKSFNRGEC	no binding		
18F2-66VH7VL3 (antibody, human IgG1, kappa, Humanized, human IgG1/kappa constant regions) heavy: not shown light: DIVMTQSPSSLTVSLGEKATISCKSSQSLLNSGNQKNYVTWYQQKPGQPPKLLIYWSSTRSFGVPDRFSGSGSGTDFTLTISSLQAEDLAVYYCQNDYTYPFTFGSGTKLEIKRTVAAPSVFIFPPSDEQLKSGTASVVCLLNNFYPREAKVQWKVDNALQSGNSQESVTEQDSKDSTYSLSSTLTLSKADYEKHKVYACEVTHQGLSSPVTKSFNRGEC	no binding		
18F2-5 (antibody, human IgG1, kappa, V domains shown) VH: QVQLQQPGAELVRPGASVKLSCKASGYTFTSFWLNWVKQRPGQGLEWIGNIYPSTSYTVYNQKFKDKATLTVDKSSSTAYMQLSSPTSEDSAVYYCTRTWRGNSFDLWGQGTTLTVSS VL: DIVMTQSPSSLTVTAGEKVTMSCKSNQSLLNSGNQKNYVTWYQQKPGQPPKLLIYWGSTRVRGVPDRFTGSGSGTDFTLTISSVQAEDLAVYYCQNDYTYPFTFGSGTKLEIKR		616	
IMAB362 (antibody, V domains shown) VH: QVQLQQPGAELVRPGASVKLSCKASGYTFTSYWINWVKQRPGQGLEWIGNIYPSDSYTNYNQKFKDKATLTVDKSSSTAYMQLSSPTSEDSAVYYCTRSWRGNSFDYWGQGTTLTVSS VL: DIVMTQSPSSLTVTAGEKVTMSCKSSQSLLNSGNQKNYLTWYQQKPGQPPKLLIYWASTRESGVPDRFTGSGSGTDFTLTISSVQAEDLAVYYCQNDYSYPFTFGSGTKLEIKR		634	
18F2-30 (antibody, human IgG1, kappa, V domains shown) VH: QVQLQQPGAELVRPGASVKLSCKASGYTFTSFWLNWVKQRPGQGLEWIGNIYPSTSYTVYNQKFKDKATLTVDKSSSTAYMQLSSPTSEDSAVYYCTRTWRGNSFDYWGQGTTLTVSS VL: DIVMTQSPSSLTVTAGEKVTMSCKSSQSLLNSGNQKNYVTWYQQKPGQPPKLLIYWGSTRSTGVPDRFTGSGSGTDFTLTISSVQAEDLAVYYCQNDYTYPFTFGSGTKLEIKR		562	
18F2 (antibody, human IgG1, kappa, V domains shown, Chimeric full length antibody, mouse variable regions with human IgG1/kappa constant regions; also called clone 18F2; parent clone 18F2) VH: QVQLQQPGAELVRPGASVKLSCKASGYTFTSFWVNWVKQRPGQGLEWIGNIYPSTSYTVYNQKFKDKATLTVDKSSSTAYMQLSSPTSEDSAVYYCTRSWRGNSFDHWGQGTTLTVSS VL: DIVMTQSPSSLTVTAGEKVTMSCKSSQSLLNSGNQKNYVTWYQQKPGQPPKLLIYWGSTRVRGVPDRFTGSGSGTDFTLTISSVQAEDLAVYYCQNDYTYPFTFGSGTKLEIKR		1260	
18F2-66 (antibody, human IgG1, kappa, V domains shown) VH: QVQLQQPGAELVRPGASVKLSCKASGYTFTSFWINWVKQRPGQGLEWIGNIYPSASYTVYNQKFKDKATLTVDKSSSTAYMQLSSPTSEDSAVYYCTRTWRGNSFDLWGQGTTLTVSS VL: DIVMTQSPSSLTVTAGEKVTMSCKSSQSLLNSGNQKNYVTWYQQKPGQPPKLLIYWSSTRSFGVPDRFTGSGSGTDFTLTISSVQAEDLAVYYCQNDYTYPFTFGSGTKLEIKR		524	
18F2-35 (antibody, human IgG1, kappa, V domains shown) VH: QVQLQQPGAELVRPGASVKLSCKASGYTFTSFWLNWVKQRPGQGLEWIGNIYPSTSYTIYNQKFKDKATLTVDKSSSTAYMQLSSPTSEDSAVYYCTRTWRGNSFDYWGQGTTLTVSS VL: DIVMTQSPSSLTVTAGEKVTMSCKSSQSLLNSGNQKNYLTWYQQKPGQPPKLLIYWGSTRVRGVPDRFTGSGSGTDFTLTISSVQAEDLAVYYCQNDYTYPFTFGSGTKLEIKR		509	
18F2-30VH0VL0 (antibody, human IgG1, kappa, V domains shown, Humanized, human IgG1/kappa constant regions) VH: QVQLVQSGAEVKKPGASVKVSCKASGYTFTSFWLNWVRQAPGQGLEWMGNIYPSTSYTVYNQKFKDRVTMTRDTSTSTVYMELSSLRSEDTAVYYCARTWRGNSFDYWGQGTTVTVSS VL: DIVMTQSPDSLAVSLGERATINCKSSQSLLNSGNQKNYVTWYQQKPGQPPKLLIYWGSTRSTGVPDRFSGSGSGTDFTLTISSLQAEDVAVYYCQNDYTYPFTFGQGTKLEIKR			binding result [3]: binds; binding result [4]: binds; binding result [5]: binds; binding result [6]: no binding
18F2-66VH2VL0 (antibody, human IgG1, kappa, V domains shown, Humanized, human IgG1/kappa constant regions) VH: QVQLVQSGAEVKKPGASVKVSCKASGYTFTSFWINWVRQAPGQGLEWIGNIYPSASYTVYNQKFKDRVTLTVDKSTSTVYMELSSLRSEDTAVYYCARTWRGNSFDLWGQGTTVTVSS VL: DIVMTQSPDSLAVSLGERATINCKSSQSLLNSGNQKNYVTWYQQKPGQPPKLLIYWSSTRSFGVPDRFSGSGSGTDFTLTISSLQAEDVAVYYCQNDYTYPFTFGQGTKLEIKR	no binding		
18F2-66VH5VL0 (antibody, human IgG1, kappa, V domains shown, Humanized, human IgG1/kappa constant regions) VH: QVQLVQSGAEVKKPGASVKVSCKASGYTFTSFWINWVRQRPGQGLEWIGNIYPSASYTVYNQKFKDRVTLTVDKSTSTAYMELSSLRSEDTAVYYCTRTWRGNSFDLWGQGTTVTVSS VL: DIVMTQSPDSLAVSLGERATINCKSSQSLLNSGNQKNYVTWYQQKPGQPPKLLIYWSSTRSFGVPDRFSGSGSGTDFTLTISSLQAEDVAVYYCQNDYTYPFTFGQGTKLEIKR	no binding		
18F2-66VH6VL0 (antibody, human IgG1, kappa, V domains shown, Humanized, human IgG1/kappa constant regions) VH: QVQLVQSGAEVKKPGASVKVSCKASGYTFTSFWINWVRQRPGQGLEWIGNIYPSASYTVYNQKFKDRVTLTVDKSSSTAYMELSSLTSEDTAVYYCTRTWRGNSFDLWGQGTTVTVSS VL: DIVMTQSPDSLAVSLGERATINCKSSQSLLNSGNQKNYVTWYQQKPGQPPKLLIYWSSTRSFGVPDRFSGSGSGTDFTLTISSLQAEDVAVYYCQNDYTYPFTFGQGTKLEIKR	no binding		
18F2-66VH3VL0 (antibody, human IgG1, kappa, V domains shown, Humanized, human IgG1/kappa constant regions) VH: QVQLVQSGAEVKKPGASVKVSCKASGYTFTSFWINWVRQAPGQGLEWIGNIYPSASYTVYNQKFKDRVTLTVDTSTSTVYMELSSLRSEDTAVYYCARTWRGNSFDLWGQGTTVTVSS VL: DIVMTQSPDSLAVSLGERATINCKSSQSLLNSGNQKNYVTWYQQKPGQPPKLLIYWSSTRSFGVPDRFSGSGSGTDFTLTISSLQAEDVAVYYCQNDYTYPFTFGQGTKLEIKR	no binding		
18F2-66VH4VL0 (antibody, human IgG1, kappa, V domains shown, Humanized, human IgG1/kappa constant regions) VH: QVQLVQSGAEVKKPGASVKVSCKASGYTFTSFWINWVRQRPGQGLEWIGNIYPSASYTVYNQKFKDRVTLTVDKSTSTVYMELSSLRSEDTAVYYCARTWRGNSFDLWGQGTTVTVSS VL: DIVMTQSPDSLAVSLGERATINCKSSQSLLNSGNQKNYVTWYQQKPGQPPKLLIYWSSTRSFGVPDRFSGSGSGTDFTLTISSLQAEDVAVYYCQNDYTYPFTFGQGTKLEIKR	no binding		
18F2-66VH0VL0 (antibody, human IgG1, kappa, V domains shown, Humanized, human IgG1/kappa constant regions) VH: QVQLVQSGAEVKKPGASVKVSCKASGYTFTSFWINWVRQAPGQGLEWMGNIYPSASYTVYNQKFKDRVTMTRDTSTSTVYMELSSLRSEDTAVYYCARTWRGNSFDLWGQGTTVTVSS VL: DIVMTQSPDSLAVSLGERATINCKSSQSLLNSGNQKNYVTWYQQKPGQPPKLLIYWSSTRSFGVPDRFSGSGSGTDFTLTISSLQAEDVAVYYCQNDYTYPFTFGQGTKLEIKR	no binding		
18F2-35VH0VL0 (antibody, human IgG1, kappa, V domains shown, Humanized, human IgG1/kappa constant regions) VH: QVQLVQSGAEVKKPGASVKVSCKASGYTFTSFWLNWVRQAPGQGLEWMGNIYPSTSYTIYNQKFKDRVTMTRDTSTSTVYMELSSLRSEDTAVYYCARTWRGNSFDYWGQGTTVTVSS VL: DIVMTQSPDSLAVSLGERATINCKSSQSLLNSGNQKNYLTWYQQKPGQPPKLLIYWGSTRVRGVPDRFSGSGSGTDFTLTISSLQAEDVAVYYCQNDYTYPFTFGQGTKLEIKR			binding result [3]: binds; binding result [4]: binds; binding result [5]: binds; binding result [6]: no binding
18F2-35VH7VL0 (antibody, human IgG1, kappa, V domains shown, Humanized, human IgG1/kappa constant regions) VH: QVQLVQSGAEVKKPGASVKVSCKASGYTFTSFWLNWVKQRPGQGLEWIGNIYPSTSYTIYNQKFKDKVTLTVDKSTSTAYMELSSLRSEDTAVYYCTRTWRGNSFDYWGQGTTVTVSS VL: DIVMTQSPDSLAVSLGERATINCKSSQSLLNSGNQKNYLTWYQQKPGQPPKLLIYWGSTRVRGVPDRFSGSGSGTDFTLTISSLQAEDVAVYYCQNDYTYPFTFGQGTKLEIKR	no binding		
